According to patent US20170283834A1, “Processes for Producing A Fermentation Product Using A Fermenting Organism” (Novozymes A/S, priority 2014, published 2017):

How the values were obtained:
[1] = Protein thermal unfolding analysis (TSA, Thermal shift assay); type: physicochemical
Method: Protein thermal unfolding of the T65A and Q327F variants, was monitored using Sypro Orange (In-vitrogen, S-6650) and was performed using a real-time PCR instrument (Applied Biosystems; Step-One-Plus).
In a 96-well plate, 25 microliter micropurified sample in 50 mM Acetate pH4,5 at approx. 100 microgram/ml was mixed (5:1) with Sypro Orange (resulting conc.=5×; stock solution from supplier=5000×). The plate was sealed with an optical PCR seal. The PCR instrument was set at a scan-rate of 76° C. pr. hr, starting at 25° C. and finishing at 96° C.
Protein thermal unfolding of the E501V+Y504T variant, was monitored using Sypro Orange (In-vitrogen, S-6650) and was performed using a real-time PCR instrument (Applied Biosystems; Step-One-Plus).
In a 96-well plate, 15 microliter purified sample in 50 mM Acetate pH4,5 at approx. 50 microgram/ml was mixed (1:1) with Sypro Orange (resulting conc.=5×; stock solution from supplier=5000×) with or without 200 ppm Acarbose (Sigma A8980). The plate was sealed with an optical PCR seal. The PCR instrument was set at a scan-rate of 76 degrees C. pr. hr, starting at 25° C. and finishing at 96° C.
Fluorescence was monitored every 20 seconds using in-built LED blue light for excitation and ROX-filter (610 nm, emission).
Tm-values were calculated as the maximum value of the first derivative (dF/dK) (ref.: Gregory et al; J Biomol Screen 2009 14: 700.)

[2] = test system: host proteases; assay: Cleavage during cultivation, SDS-PAGE of culture supernatants; set-up: species or system Aspergillus niger
Method: Aspergillus transformant of the variant and the wild type Penicillium oxalicum glucoamylase were cultivated in 6-well MT plates containing 4× diluted YP-2% maltose medium supplemented with 10 mM sodium acetate buffer, pH4.5, at 32° C. for 1 week.
The culture supernatants were loaded on SDS-PAGE.

[3] = target: T1, aorsin (Aspergillus oryzae, UniProt Q8NK92); assay: PE001 protease stability, SDS-PAGE after protease treatment; type: biochemical
T1 sequence (Q8NK92 216-652): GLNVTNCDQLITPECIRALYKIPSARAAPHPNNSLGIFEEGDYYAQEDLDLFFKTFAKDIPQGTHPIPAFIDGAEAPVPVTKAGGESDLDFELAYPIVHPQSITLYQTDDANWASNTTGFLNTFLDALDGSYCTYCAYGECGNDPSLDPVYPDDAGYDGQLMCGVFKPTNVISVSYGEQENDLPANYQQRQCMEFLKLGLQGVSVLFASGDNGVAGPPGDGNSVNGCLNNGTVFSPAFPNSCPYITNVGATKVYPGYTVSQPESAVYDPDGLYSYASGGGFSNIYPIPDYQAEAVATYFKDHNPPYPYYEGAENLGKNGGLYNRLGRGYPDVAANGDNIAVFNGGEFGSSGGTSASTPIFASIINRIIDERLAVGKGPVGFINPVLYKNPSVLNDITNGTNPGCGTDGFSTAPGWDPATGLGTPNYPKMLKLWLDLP
Method: (§1) 40 μl enzyme solutions (1 mg/ml) in 50 mM sodium acetate buffer, pH 4.5, were mixed with 1/10 volume of 1 mg/ml protease solutions such as aspergillopepsin I described in Biochem J. 1975 April; 147(1):45-53, or the commercially available product from Sigma and aorsin described in Biochemical journal [0264-6021] Ichishima yr: 2003 vol:371 iss:Pt 2 pg:541 and incubated at 4 or 32° C. overnight. As a control experiment, H2O was added to the sample instead of proteases. The samples were loaded on SDS-PAGE to see if the glucoamylases are cleaved by proteases.

[4] = test system: aspergillopepsin I; assay: as above; type: biochemical; settings: for intact glucoamylase (ca. 70 kDa): aspergillopepsin I
Method: as §1

[5] = Thermostability analysis by Differential Scanning Calorimetry (DSC); type: physicochemical
Method: . The thermal denaturation temperature, Td (° C.), was taken as the top of the denaturation peak (major endothermic peak) in thermograms (Cp vs. T) obtained after heating enzyme solutions in selected buffers (50 mM Sodium Acetate, pH 4.0 or 4.8) at a constant programmed heating rate of 200K/hr.
Sample- and reference-solutions (approximately 0.3 ml) were loaded into the calorimeter (reference: buffer without enzyme) from storage conditions at 10° C. and thermally pre-equilibrated for 10 minutes at 20° C. prior to DSC scan from 20° C. to 110° C. Denaturation temperatures were determined with an accuracy of approximately +/−1° C.

[6] = test system: protease; settings: cited from earlier work
[7] = Glucoamylase activity (AGU) of variant compared to parent; type: biochemical; settings: 37° C., pH 4.3, maltose 100 mM
Method: The Novo Glucoamylase Unit (AGU) is defined as the amount of enzyme, which hydrolyzes 1 micromole maltose per minute under the standard conditions 37° C., pH 4.3, substrate: maltose 23.2 mM, buffer: acetate 0.1 M, reaction time 5 minutes.
An autoanalyzer system may be used. Mutarotase is added to the glucose dehydrogenase reagent so that any alpha-D-glucose present is turned into beta-D-glucose. Glucose dehydrogenase reacts specifically with beta-D-glucose in the reaction mentioned above, forming NADH which is determined using a photometer at 340 nm as a measure of the original glucose concentration.
The glucoamylase activity measures as AGU as described above was checked for the purified enzymes of the wild type Penicillium oxalicum and the variant glucoamylase.
The Glucoamylase Unit (AGU) was defined as the amount of enzyme, which hydrolyzes 1 micromole maltose per minute under the standard conditions (37° C., pH 4.3, substrate: maltose 100 mM, buffer: acetate 0.1 M, reaction time 6 minutes).

B1: PE001: Penicillium oxalicum glucoamylase SEQ ID NO: 14 with K79V substitution (protein, listed as Penicillium oxalicum)
chain: RPDPKGGNLTPFIHKEGERSLQGILDNLGGRGKKTPGTAAGLFIASPNTENPNYYYTWTRDSALTAKCLIDLFEDSRAVFPIDRKYLETGIRDYKSSQAILQSVSNPSGTLKDGSGLGEPKFEIDLNPFSGAWGRPQRDGPALRATAMITYANYLISHGQKSDVSQVMWPIIANDLAYVGQYWNNTGFDLWEEVDGSSFFTIAVQHRALVEGSQLAKKLGKSCDACDSQPPQILCFLQSFWNGKYITSNINTQASRSGIDLDSVLGSIHTFDPEAACDDATFQPCSARALANHKVYVDSFRSIYKINAGLAEGSAANVGRYPEDVYQGGNPWYLATLGASELLYDALYQWDRLGKLEVSETSLSFFKDFDATVKIGSYSRNSKTYKKLTQSIKSYADGFIQLVQQYTPSNGSLAEQYDRNTAAPLSANDLTWSFASFLTATQRRDAVVPPSWGAKSANKVPTTCSASPVVGTYKAPTATFSSKTKCVPAKDIVPITFYLIENTYYGENVFMSGNITALGNWDAKKGFPLTANLYTQDQNLWFASVEFIPAGTPFEYKYYKVEPNGDITWEKGPNRVFVAPTGCPVQPHSNDVWQF
modifications: mat_peptide (1)..(595) mature Penicillium oxalicum glucoamylase sequence
For B1, the “Tm (Deg. Celsius) +/−0.4” value ([1]; Table 14a, 50 mM Acetate pH 4,5) was 80.3 Deg. Celsius, the “Tm (Deg. Celsius) +/−0.4” value ([1]; Table 14b, Acarbose: + (200 ppm)) was 86.9 Deg. Celsius and the “Tm (Deg. Celsius) +/−0.4” value ([1]; Table 14b, Acarbose: −) was 79.5 Deg. Celsius. The “cleavage by host proteases during fermentation” value [2] was “yielded only intact molecule”, the “intact glucoamylase (ca. 70 kDa)” value ([2]; culture supernatant, 32° C., 1 week) was 100% and the “intact glucoamylase (ca. 70 kDa)” value ([3]; incubation 4° C. overnight) was 100%. The “intact glucoamylase (ca. 70 kDa)” value ([3]; incubation 32° C. overnight) was 100%, the “intact glucoamylase (ca. 70 kDa)” value ([4]; incubation 4° C. overnight) was 100% and the “intact glucoamylase (ca. 70 kDa)” value ([4]; incubation 32° C. overnight) was 100%. For the same molecule, the “SDS-PAGE result after protease treatment” value ([4]; proteases (aspergillopepsin I, aorsin)) was “only showed one band corresponding to the intact molecule”, the “DSC Td (° C.) @ pH 4.0” value ([5]; pH 4.0, 50 mM Sodium Acetate) was 82.1 °C and the “DSC Td (° C.) @ pH 4.8” value ([5]; pH 4.8, 50 mM Sodium Acetate) was 83.4 °C. For the same molecule, the “sensitivity to protease degradation relative to the parent” value [6] was “reduced sensitivity to protease degradation relative to the parent” and the “Relative specific activity AGU/mg” value [7] was 102%.
